In publication doi:10.1101/2022.06.19.496723 one finds stoichiometry N data, which are given here for one substance.

For the experiment, the target named is NnlA (N-nitroglycine lyase) from Variovorax sp. strain JS1663, tag-free after TEV cleavage (Variovorax sp. strain JS1663). Briefly: SEC. A general note: In gel filtration, larger molecules generally elute earlier.

As to “NnlA (N-nitroglycine lyase) from Variovorax sp. strain JS1663, tag-free after TEV cleavage (enzyme)”, the stoichiometry N is 2.

Usually stoichiometry N stands for a count of units in the complex or per binding partner.
